Experimental data: patent US20090098111

Columns and labels:
[1] = system: GST-XtopBP1 (972-1279) ΔRQLQ
[2] = system: GST-XtopBP1 (972-1279) ΔWDDP
[3] = system: GST-XtopBP1 (972-1279)-W1138R
[4] = system: His6-XtopBP1 (full-length)
[5] = system: His6-XtopBP1-W1138R (full-length)

Chain of Xatr (endogenous Xenopus ATR in egg extracts) (chain, as listed by the source): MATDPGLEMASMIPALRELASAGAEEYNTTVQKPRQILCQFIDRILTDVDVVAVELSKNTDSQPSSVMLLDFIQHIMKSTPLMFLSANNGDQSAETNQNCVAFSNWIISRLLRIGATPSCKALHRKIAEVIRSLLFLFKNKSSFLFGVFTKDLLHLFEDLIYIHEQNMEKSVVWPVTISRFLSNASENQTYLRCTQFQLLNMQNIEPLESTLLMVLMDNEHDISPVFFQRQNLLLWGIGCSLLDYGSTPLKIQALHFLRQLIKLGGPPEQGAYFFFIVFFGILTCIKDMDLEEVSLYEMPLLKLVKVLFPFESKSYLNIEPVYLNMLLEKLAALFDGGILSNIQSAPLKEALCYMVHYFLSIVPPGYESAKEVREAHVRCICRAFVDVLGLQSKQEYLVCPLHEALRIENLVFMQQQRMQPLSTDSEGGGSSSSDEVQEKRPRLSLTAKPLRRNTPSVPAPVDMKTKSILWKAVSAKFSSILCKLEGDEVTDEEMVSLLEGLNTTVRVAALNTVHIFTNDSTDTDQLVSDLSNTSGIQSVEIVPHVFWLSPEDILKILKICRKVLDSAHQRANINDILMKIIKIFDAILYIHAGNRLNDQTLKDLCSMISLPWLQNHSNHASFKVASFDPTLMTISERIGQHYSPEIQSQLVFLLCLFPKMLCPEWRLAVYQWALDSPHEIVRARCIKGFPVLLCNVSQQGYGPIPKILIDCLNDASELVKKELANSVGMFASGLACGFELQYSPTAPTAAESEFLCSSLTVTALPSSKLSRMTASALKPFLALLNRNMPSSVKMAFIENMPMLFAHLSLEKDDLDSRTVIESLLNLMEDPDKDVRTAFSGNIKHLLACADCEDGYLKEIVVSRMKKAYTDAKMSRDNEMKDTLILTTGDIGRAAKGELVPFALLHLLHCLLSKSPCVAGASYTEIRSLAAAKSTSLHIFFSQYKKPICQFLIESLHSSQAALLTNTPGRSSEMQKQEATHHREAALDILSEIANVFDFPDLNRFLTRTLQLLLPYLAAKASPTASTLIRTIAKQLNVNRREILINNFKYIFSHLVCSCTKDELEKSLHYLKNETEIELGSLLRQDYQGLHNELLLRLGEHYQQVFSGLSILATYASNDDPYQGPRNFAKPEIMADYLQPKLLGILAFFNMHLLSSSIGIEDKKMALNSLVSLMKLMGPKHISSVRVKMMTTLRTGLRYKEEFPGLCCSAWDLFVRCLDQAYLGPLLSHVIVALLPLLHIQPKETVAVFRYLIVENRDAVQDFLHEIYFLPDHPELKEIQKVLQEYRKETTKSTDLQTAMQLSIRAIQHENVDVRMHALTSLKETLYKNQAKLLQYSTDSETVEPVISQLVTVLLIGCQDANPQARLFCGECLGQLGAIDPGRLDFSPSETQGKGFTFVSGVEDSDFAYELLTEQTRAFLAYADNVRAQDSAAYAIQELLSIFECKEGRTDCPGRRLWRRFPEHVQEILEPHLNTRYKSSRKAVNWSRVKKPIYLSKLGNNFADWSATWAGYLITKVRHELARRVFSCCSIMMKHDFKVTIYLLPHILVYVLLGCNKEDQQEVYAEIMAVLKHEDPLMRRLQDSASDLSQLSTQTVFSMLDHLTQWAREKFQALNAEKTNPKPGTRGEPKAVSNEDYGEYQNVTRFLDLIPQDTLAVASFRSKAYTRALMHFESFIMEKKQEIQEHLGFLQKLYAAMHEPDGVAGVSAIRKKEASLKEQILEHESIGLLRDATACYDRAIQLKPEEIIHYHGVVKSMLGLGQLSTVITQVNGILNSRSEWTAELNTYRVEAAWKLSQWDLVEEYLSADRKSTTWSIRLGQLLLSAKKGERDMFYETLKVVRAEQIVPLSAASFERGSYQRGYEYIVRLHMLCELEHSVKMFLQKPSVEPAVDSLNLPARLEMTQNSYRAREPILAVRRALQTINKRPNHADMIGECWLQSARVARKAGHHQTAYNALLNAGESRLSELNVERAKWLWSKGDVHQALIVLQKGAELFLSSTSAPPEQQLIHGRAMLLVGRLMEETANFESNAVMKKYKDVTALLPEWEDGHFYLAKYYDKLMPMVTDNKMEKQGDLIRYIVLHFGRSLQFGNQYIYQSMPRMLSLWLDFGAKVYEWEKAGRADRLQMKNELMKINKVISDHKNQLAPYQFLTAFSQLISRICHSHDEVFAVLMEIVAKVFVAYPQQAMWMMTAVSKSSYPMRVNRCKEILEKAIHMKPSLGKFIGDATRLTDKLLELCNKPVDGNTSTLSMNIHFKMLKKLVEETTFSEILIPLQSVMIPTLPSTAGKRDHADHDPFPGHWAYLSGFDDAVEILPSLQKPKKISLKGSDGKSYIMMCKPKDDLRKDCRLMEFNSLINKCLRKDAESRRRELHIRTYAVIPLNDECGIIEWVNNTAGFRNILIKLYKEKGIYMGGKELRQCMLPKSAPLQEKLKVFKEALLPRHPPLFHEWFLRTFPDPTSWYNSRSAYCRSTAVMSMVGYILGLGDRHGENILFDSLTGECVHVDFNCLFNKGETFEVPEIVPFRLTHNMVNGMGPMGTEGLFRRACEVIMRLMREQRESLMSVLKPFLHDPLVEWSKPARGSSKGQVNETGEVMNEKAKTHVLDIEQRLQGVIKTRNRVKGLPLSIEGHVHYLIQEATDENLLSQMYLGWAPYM
Chain of His6-XtopBP1 (full-length) (chain, as listed by the source): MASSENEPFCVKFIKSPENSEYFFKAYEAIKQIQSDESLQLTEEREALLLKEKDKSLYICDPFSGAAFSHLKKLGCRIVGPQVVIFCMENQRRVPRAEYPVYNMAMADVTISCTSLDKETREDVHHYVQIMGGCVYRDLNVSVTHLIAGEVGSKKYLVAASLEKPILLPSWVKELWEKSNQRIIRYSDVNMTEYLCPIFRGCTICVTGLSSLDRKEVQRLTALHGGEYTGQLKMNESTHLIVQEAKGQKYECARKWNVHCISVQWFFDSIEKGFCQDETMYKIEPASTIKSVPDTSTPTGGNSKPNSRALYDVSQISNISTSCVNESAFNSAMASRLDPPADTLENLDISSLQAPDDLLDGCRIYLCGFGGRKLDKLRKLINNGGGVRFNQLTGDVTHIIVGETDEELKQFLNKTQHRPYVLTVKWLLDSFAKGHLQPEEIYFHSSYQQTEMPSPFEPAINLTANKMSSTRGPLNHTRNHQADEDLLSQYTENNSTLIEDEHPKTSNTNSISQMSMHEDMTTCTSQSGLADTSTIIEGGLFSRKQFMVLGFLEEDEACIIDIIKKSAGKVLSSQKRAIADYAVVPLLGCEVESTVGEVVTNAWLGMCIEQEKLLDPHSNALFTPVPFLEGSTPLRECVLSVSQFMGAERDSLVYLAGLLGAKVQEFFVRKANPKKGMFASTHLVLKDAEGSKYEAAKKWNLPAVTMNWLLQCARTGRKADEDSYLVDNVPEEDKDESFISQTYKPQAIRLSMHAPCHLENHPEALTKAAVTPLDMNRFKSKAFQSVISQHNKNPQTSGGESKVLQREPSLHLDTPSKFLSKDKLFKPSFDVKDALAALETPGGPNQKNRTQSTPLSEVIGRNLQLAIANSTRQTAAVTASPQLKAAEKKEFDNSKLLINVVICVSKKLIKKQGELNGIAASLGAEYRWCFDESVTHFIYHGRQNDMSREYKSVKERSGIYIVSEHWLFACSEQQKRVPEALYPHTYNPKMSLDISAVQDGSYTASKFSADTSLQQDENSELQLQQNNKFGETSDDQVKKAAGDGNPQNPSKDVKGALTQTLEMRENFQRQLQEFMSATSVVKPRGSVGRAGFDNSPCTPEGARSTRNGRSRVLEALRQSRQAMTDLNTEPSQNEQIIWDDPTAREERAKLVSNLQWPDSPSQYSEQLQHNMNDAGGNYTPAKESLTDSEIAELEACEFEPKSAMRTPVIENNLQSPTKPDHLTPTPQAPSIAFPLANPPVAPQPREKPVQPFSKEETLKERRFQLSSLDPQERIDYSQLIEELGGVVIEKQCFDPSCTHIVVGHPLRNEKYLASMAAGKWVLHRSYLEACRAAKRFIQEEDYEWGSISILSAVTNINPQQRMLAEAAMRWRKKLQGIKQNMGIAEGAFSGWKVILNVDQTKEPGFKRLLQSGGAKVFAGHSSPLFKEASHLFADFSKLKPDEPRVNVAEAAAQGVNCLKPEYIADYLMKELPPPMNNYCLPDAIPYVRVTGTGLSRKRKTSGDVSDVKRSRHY
Chain of GST-XtopBP1 (972-1279) (chain, as listed by the source): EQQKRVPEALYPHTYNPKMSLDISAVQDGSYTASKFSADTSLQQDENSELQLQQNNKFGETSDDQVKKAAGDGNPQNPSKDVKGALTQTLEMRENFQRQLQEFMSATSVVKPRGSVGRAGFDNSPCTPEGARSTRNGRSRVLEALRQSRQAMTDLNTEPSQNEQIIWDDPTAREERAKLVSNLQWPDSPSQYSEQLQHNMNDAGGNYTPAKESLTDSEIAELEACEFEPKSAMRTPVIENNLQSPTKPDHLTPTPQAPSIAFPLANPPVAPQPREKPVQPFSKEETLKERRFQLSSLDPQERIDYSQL
Chain of GST-XtopBP1 (1197-1513) (chain, as listed by the source): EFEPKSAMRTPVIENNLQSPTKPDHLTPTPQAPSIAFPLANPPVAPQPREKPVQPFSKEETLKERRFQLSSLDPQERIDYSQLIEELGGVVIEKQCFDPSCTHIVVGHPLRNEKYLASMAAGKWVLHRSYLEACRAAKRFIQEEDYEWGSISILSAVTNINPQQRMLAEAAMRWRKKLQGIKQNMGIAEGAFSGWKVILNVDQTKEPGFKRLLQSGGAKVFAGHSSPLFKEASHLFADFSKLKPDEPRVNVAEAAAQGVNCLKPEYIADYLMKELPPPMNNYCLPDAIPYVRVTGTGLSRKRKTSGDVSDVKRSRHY
Chain of GST-XtopBP1 (972-1279)-W1138R (chain, as listed by the source W1138R): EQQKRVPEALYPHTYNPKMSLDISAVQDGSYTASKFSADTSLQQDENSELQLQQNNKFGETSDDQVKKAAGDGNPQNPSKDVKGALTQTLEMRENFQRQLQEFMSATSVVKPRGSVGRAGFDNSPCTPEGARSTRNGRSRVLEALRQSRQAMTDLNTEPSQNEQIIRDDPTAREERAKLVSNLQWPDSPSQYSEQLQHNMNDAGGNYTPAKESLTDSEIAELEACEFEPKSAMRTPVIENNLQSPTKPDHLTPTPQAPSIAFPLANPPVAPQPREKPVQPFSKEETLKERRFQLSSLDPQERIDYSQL

With “Xatr (endogenous Xenopus ATR in egg extracts)” the “phosphorylation of 35S-Xchk1 in egg extracts (electrophoretic mobility)” value (“phosphorylation of 35S-Xchk1” for short) (GST-XtopBP1 (1197-1513)) was “the GST-XtopBP1 (1197-1513) fragment, which does not activate Xatr, did not induce any phosphorylation of Xchk1 in egg extracts”, the “phosphorylation of 35S-Xchk1” value [1] was “none of the ΔRQLQ, ΔWDDP, or W1138R mutants of the 972-1279 fragment could induce ectopic activation of Xchk1 in these extracts” and the “phosphorylation of 35S-Xchk1” value [2] was “none of the ΔRQLQ, ΔWDDP, or W1138R mutants of the 972-1279 fragment could induce ectopic activation of Xchk1 in these extracts”. For the same substance, the “phosphorylation of 35S-Xchk1” value [3] was “none of the ΔRQLQ, ΔWDDP, or W1138R mutants of the 972-1279 fragment could induce ectopic activation of Xchk1 in these extracts”, the “phosphorylation of 35S-Xchk1” value (GST-XtopBP1 (972-1279)) was “the 972-1279 fragment could elicit a very robust phosphorylation of Xchk1” and the “checkpoint-dependent phosphorylation of Xchk1 in XtopBP1-depleted egg extracts with aphidicolin” value [4] was “addition of wild-type His6-XtopBP1 to the XtopBP1-depleted extract was able to rescue the phosphorylation of Xchk1 fully”. For the same substance, the “checkpoint-dependent phosphorylation of Xchk1 in XtopBP1-depleted egg extracts with aphidicolin” value [5] was “the W1138R mutant could not restore the phosphorylation of Xchk1”.
